Laboratory results reported in article PMC9989928.

Key:
Details in all cases: glycan lost; control: wild-type VMO1-myc-his6
[1] = cycloheximide chase, western blot of lysates
[2] = anti-myc western blot of conditioned media
[3] = anti-myc western blot of total cell lysates

B1: vitelline membrane outer layer protein 1 homolog (VMO1): W105F (protein)
parent chain: MERGAGAKLLPLLLLLRATGFTCAQTDGRNGYTAVIEVTSGGPWGDWAWPEMCPDGFFASGFSLKVEPPQGIPGDDTALNGIRLHCARGNVLGNTHVVESQSGSWGEWSEPLWCRGGAYLVAFSLRVEAPTTLGDNTAANNVRFRCSDGEELQGPGLSWGDFGDWSDHCPKGACGLQTKIQGPRGLGDDTALNDARLFCCRS
With B1 as the protein, how does the degradation_or_half_life [1] read?
Its degradation_or_half_life is “increases”.

And the expression_or_secretion [2]?
Its expression_or_secretion is “no change”.

And the expression_or_secretion [3]?
The expression_or_secretion was “increases”.
